Molecular target: T1, recombinant human DLL3-Flag (Homo sapiens, UniProt Q9NYJ7)
T1 construct: Based on the apparent size of the DLL3 antigen (where the ECD is approximately 56 kD); Flag; purchased Adipogen International
T1 sequence (Q9NYJ7 27-492 limits assumed): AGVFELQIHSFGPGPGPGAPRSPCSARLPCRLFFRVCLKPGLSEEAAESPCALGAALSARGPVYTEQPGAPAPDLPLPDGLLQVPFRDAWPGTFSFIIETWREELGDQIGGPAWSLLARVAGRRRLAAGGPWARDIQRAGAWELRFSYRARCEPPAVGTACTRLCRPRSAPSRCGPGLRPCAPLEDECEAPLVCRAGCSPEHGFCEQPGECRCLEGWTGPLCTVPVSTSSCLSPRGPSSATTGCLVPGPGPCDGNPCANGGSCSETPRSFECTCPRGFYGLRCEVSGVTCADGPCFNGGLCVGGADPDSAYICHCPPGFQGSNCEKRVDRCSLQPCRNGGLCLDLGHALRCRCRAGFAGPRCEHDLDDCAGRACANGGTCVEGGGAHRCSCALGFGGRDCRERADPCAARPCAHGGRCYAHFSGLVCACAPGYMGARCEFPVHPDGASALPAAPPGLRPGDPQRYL
Experiment: Antibody binning by competition on ForteBio RED
Format: binding
From the text: As to antibody binning, a ForteBio RED was used per manufacturer's instructions to identify competing antibodies that bound to the same or different bins. Briefly, a reference antibody (Ab1) was captured onto an anti-mouse capture chip, a high concentration of non-binding antibody was then used to block the chip and a baseline was collected. Monomeric, recombinant human DLL3-Flag (Adipogen International) was then captured by the specific antibody (Ab1) and the tip was dipped into a well with either the same antibody (Ab1) as a control or into a well with a different test antibody (Ab2). […] If no further binding occurred, as determined by comparing binding levels with the control Ab1, then Ab2 was determined to be in the same bin. As known in the art this process can be expanded to screen large libraries of unique antibodies using a full row of antibodies representing unique bins in a 96-well plate. […] Based on the apparent size of the DLL3 antigen (where the ECD is approximately 56 kD) and the resolution of the binning methodology employed, it is believed that the nine identified bins represent the majority of the bins present on the DLL3 extracellular antigen.

B1: SC16.23: murine anti-DLL3 monoclonal antibody, sequences in FIGS. 3A and 3B (antibody, V domains shown)
VL: QIVLTQSPAIMSASPGEKVTLTCSASSSVSSRYLYWYQQKPGSSPKLWIYSTSNLASGVPARFSGSGSGTSYSLIISSMEAEDAASYFCHQWSNYPLTFGAGTKLELK
VH: QVTLKESGPGILQPSQTLSLTCSFSGFSLSTSNTGIGWIRQPSGTGLEWLAHIWWNDDKYYNPSLKSRLTISKETSNNQVFLKITNVDTADTASYFCVQIGRDYSNYAWYFDVWGAGTTVTVSS
  bin relation to other antibodies: found not to bin with SC16.34 or SC16.56
